Square brackets hold non-standard residues; d marks the D form. Ends that are not written are not given here. Peptide text beside a SMILES is read from it. Ahx = NCCCCCC(=O)O
B1: GIP(1-6)(19-30)NH2 (peptide, UniProt P09681 52-57, looked up)
peptide: YAEGTFQQDFVNWLLAQK-NH2
notes: range 1-6;range 19-30; Core deletion, no linker (formula 5, C not used, truncated at residue 30)
B2: GIP(1-14)(19-30)NH2 (peptide, UniProt P09681 52-65, looked up)
peptide: YAEGTFISDYSIAMQQDFVNWLLAQK-NH2
notes: range 1-14;range 19-30; Core deletion, no linker (formula 6, D unused, truncated at residue 30)
B3: GIP(1-6)(Ahx)3(19-30)NH2 (peptide, UniProt P09681 52-57, looked up)
peptide: YAEGTF[Ahx][Ahx][Ahx]QQDFVNWLLAQK-NH2
modifications: N-terminus assumed
SMILES: CC(C)C[C@H](NC(=O)[C@H](CC(C)C)NC(=O)[C@H](Cc1c[nH]c2ccccc12)NC(=O)[C@H](CC(N)=O)NC(=O)[C@@H](NC(=O)[C@H](Cc1ccccc1)NC(=O)[C@H](CC(=O)O)NC(=O)[C@H](CCC(N)=O)NC(=O)[C@H](CCC(N)=O)NC(=O)CCCCCNC(=O)CCCCCNC(=O)CCCCCNC(=O)[C@H](Cc1ccccc1)NC(=O)[C@@H](NC(=O)CNC(=O)[C@H](CCC(=O)O)NC(=O)[C@H](C)NC(=O)[C@@H](N)Cc1ccc(O)cc1)[C@@H](C)O)C(C)C)C(=O)N[C@@H](C)C(=O)N[C@@H](CCC(N)=O)C(=O)N[C@@H](CCCCN)C(N)=O
notes: range 52-57
B4: GIP(1-6)(Ahx)2(19-30)NH2 (peptide, UniProt P09681 52-57, looked up)
peptide: YAEGTF[Ahx][Ahx]QQDFVNWLLAQK-NH2
modifications: N-terminus assumed
SMILES: CC(C)C[C@H](NC(=O)[C@H](CC(C)C)NC(=O)[C@H](Cc1c[nH]c2ccccc12)NC(=O)[C@H](CC(N)=O)NC(=O)[C@@H](NC(=O)[C@H](Cc1ccccc1)NC(=O)[C@H](CC(=O)O)NC(=O)[C@H](CCC(N)=O)NC(=O)[C@H](CCC(N)=O)NC(=O)CCCCCNC(=O)CCCCCNC(=O)[C@H](Cc1ccccc1)NC(=O)[C@@H](NC(=O)CNC(=O)[C@H](CCC(=O)O)NC(=O)[C@H](C)NC(=O)[C@@H](N)Cc1ccc(O)cc1)[C@@H](C)O)C(C)C)C(=O)N[C@@H](C)C(=O)N[C@@H](CCC(N)=O)C(=O)N[C@@H](CCCCN)C(N)=O
notes: range 52-57
B5: GIP(1-6)(AAAA)(19-30)NH2 (peptide)
peptide: YAEGTFAAAAQQDFVNWLLAQK-NH2
notes: range 1-6;range 19-30; also called GIP(l-6)(AAAA)(19-30)NH2
B6: GIP(1-6)(EKEEKEKEEKE)(19-30)NH2 (peptide)
peptide: YAEGTFEKEEKEKEEKEQQDFVNWLLAQK-NH2
notes: range 1-6;range 19-30; The expected mass 3574.0 fits the 11-residue linker as printed
B7: GIP(1-6)(Ahx)1(19-30)NH2 (peptide, UniProt P09681 52-57, looked up)
peptide: YAEGTF[Ahx]QQDFVNWLLAQK-NH2
modifications: N-terminus assumed
SMILES: CC(C)C[C@H](NC(=O)[C@H](CC(C)C)NC(=O)[C@H](Cc1c[nH]c2ccccc12)NC(=O)[C@H](CC(N)=O)NC(=O)[C@@H](NC(=O)[C@H](Cc1ccccc1)NC(=O)[C@H](CC(=O)O)NC(=O)[C@H](CCC(N)=O)NC(=O)[C@H](CCC(N)=O)NC(=O)CCCCCNC(=O)[C@H](Cc1ccccc1)NC(=O)[C@@H](NC(=O)CNC(=O)[C@H](CCC(=O)O)NC(=O)[C@H](C)NC(=O)[C@@H](N)Cc1ccc(O)cc1)[C@@H](C)O)C(C)C)C(=O)N[C@@H](C)C(=O)N[C@@H](CCC(N)=O)C(=O)N[C@@H](CCCCN)C(N)=O
notes: range 52-57

Tests used:
[1] = molecular target: T1, rat pancreatic islet (wild type) GIP-receptor (Rattus norvegicus, UniProt P43219); experiment: biochemical; format: binding; details: read-out: Receptor Binding % Displacement at 20 μM
T1 construct: expressed in transfected cells; host or cells: CHO-K1 (Chinese hamster ovary)
T1 sequence (P43219 19-455): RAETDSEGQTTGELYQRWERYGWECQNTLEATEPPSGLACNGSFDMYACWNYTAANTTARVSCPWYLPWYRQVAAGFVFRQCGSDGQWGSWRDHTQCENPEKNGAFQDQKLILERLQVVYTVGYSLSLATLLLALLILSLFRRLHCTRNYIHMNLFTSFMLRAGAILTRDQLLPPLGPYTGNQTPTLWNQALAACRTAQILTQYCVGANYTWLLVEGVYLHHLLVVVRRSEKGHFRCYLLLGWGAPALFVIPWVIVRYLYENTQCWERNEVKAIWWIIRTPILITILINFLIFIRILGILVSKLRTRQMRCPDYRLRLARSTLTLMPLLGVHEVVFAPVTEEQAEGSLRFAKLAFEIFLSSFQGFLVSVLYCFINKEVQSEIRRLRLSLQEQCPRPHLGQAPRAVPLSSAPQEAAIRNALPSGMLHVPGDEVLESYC
Description: (§1) Cells were cultured in DMEM/F12, supplemented with 10% newborn calf serum, 50 units/ml penicillin G, and 50 μg/ml streptomycin (Culture media and antibiotics from Gibco BRL, Life Technologies). Cells were grown in 75 cm^2 flasks until 80-90% confluent, when they were split and seeded onto 24 well plates at a density of 50,000 cells/well. Experiments were carried out 48 h later.
(§2) Binding studies using ^125I-labeled spGIP1-42, purified by high performance liquid chromatography (HPLC), were performed essentially as described previously-[21]. wtGIP-R1 Cells (1-5×10^5/well) were washed twice at 4° C. in binding buffer (BB), consisting of DMEM/F12 (GIBCO), 15 mM HEPES, 0.1% bovine serum albumin (BSA), 1% Trasylol (aprotinin; Bayer), pH 7.4. They were incubated for 12-16 h at 4° C. with ^125I-spGIP (50,000 cpm) in the presence or absence of unlabeled GIP1-42 or analogue. Following incubation, cells were washed twice with ice cold buffer, solubilized with 0.1 M NaOH (1 ml), and transferred to culture tubes for counting of cell-associated radioactivity. Nonspecific binding was defined as that measured in the presence of 1 μM GIP1-42 or GIP1-30, and specific binding expressed as % of binding in the absence of competitor (% B/Bo).

[2] = molecular target: T1, rat pancreatic islet (wild type) GIP-receptor; experiment: cAMP production in CHO-K1 cells expressing the GIP-receptor (wtGIP-R1 cells); format: cell-based; details: Table 3; cyclic AMP stimulated by 20 μM peptide if plateau levels were not achieved
Description: as §1
Cells were extracted with 70% ethanol and cAMP levels measured by radioimmunoassay (Biomedical Technologies, Stoughton, Mass.). Data are expressed as fmol/1000 cells or % maximal GIP1-42-stimulated cAMP production (inhibition experiments).

[3] = molecular target: T2, rat pancreatic islet (wild type) GIP-receptor stably expressed on CHO-K1 cells (rat, UniProt P43219 19-455); experiment: cell-based or functional assay
T2 sequence (looked up): T1 sequence (P43219 19-455)

[4] = molecular target: T2, rat pancreatic islet (wild type) …; experiment: competition with 125I-GIP on CHO-K1 cells transfected with rat GIP receptor
Description: (§3) Cells were cultured in DMEM/F12, supplemented with 10% newborn calf serum, 50 units/ml penicillin G, and 50 μg/ml streptomycin (Culture media and antibiotics from Gibco BRL, Life Technologies). Cells were grown in 75 cm² flasks until 80-90% confluent, when they were split and seeded onto 24 well plates at a density of 50,000 cells/well. Experiments were carried out 48 h later.
as §2, with “¹²⁵I-labeled spGIP₁₋₄₂,” for “^125I-labeled spGIP1-42,”, “(1-5×10⁵/well)” for “(1-5×10^5/well)”, “¹²⁵I-spGIP” for “^125I-spGIP”, “GIP₁₋₄₂” for “GIP1-42”, “GIP₁₋₃₀,” for “GIP1-30,”

[5] = molecular target: T2, rat pancreatic islet (wild type) …; experiment: displacement of 125I-GIP from CHO-K1 cells transfected with rat GIP receptor, 20 µM peptide
Description: as §3
as §2, with “¹²⁵I-labeled spGIP₁₋₄₂,” for “^125I-labeled spGIP1-42,”, “(1-5×10⁵/well)” for “(1-5×10^5/well)”, “¹²⁵I-spGIP” for “^125I-spGIP”, “GIP₁₋₄₂” for “GIP1-42”, “GIP₁₋₃₀,” for “GIP1-30,”

Molecule	inhibition at 20 µM [1] [%]	cAMP Production Max. cAMP (Fold Basal) [2] [Fold Basal]	Max. cAMP (Fold Basal) [3] [fold basal]	IC50 [4] [nM]	% Displacement at 20 µM [5] [%]	cAMP Production EC50 [3] [nM]
CC[C@H](C)[C@H](NC(=O)[C@H](CO)NC(=O)[C@H](Cc1ccc(O)cc1)NC(=O)[C@H](CC(=O)O)NC(=O)[C@H](CO)NC(=O)[C@@H](NC(=O)[C@H](Cc1ccccc1)NC(=O)[C@@H](NC(=O)CNC(=O)[C@H](CCC(=O)O)NC(=O)[C@H](C)NC(=O)[C@@H](N)Cc1ccc(O)cc1)[C@@H](C)O)[C@@H](C)CC)C(=O)N[C@@H](C)C(=O)N[C@@H](CCSC)C(=O)NCCCCCC(=O)NCCCCCC(=O)NCCCCCC(=O)N[C@@H](CCC(N)=O)C(=O)N[C@@H](CCC(N)=O)C(=O)N[C@@H](CC(=O)O)C(=O)N[C@@H](Cc1ccccc1)C(=O)N[C@H](C(=O)N[C@@H](CC(N)=O)C(=O)N[C@@H](Cc1c[nH]c2ccccc12)C(=O)N[C@@H](CC(C)C)C(=O)N[C@@H](CC(C)C)C(=O)N[C@@H](C)C(=O)N[C@@H](CCC(N)=O)C(=O)N[C@@H](CCCCN)C(N)=O)C(C)C [GlP(1-14)(Ahx)3(19-30)NH2] (H-YAEGTFISDYSIAM[Ahx][Ahx][Ahx]QQDFVNWLLAQK-NH2; N-terminus assumed)	82.7 ± 3.2	49.5 ± 1.6	–	–	–	–
YAEGTFAAAAQQDFVNWLLAQK-NH2 [GIP(l-6)(AAAA)(19-30)NH2]	88.7 ± 3	7.21 ± 0.99	–	–	–	–
YAEGTFEKEEKEKEEKEQQDFVNWLLAQK-NH2	75.1 ± 2.7	84.9 ± 8.1	–	–	–	–
YAEGTFEKEKQQDFVNWLLAQK-NH2 [GIP(1-6)(EKEK)(19-30)NH2]	86.8 ± 1.6	8.17 ± 0.87	–	–	–	–
YAEGTFISDYSIAMAAAAQQDFVNWLLAQK-NH2 [GIP(1-14)(AAAA)(19-30)NH2]	100 ± 0.9	82.1 ± 2.8	–	–	–	–
YAEGTFISDYSIAMEKEKQQDFVNWLLAQK-NH2 [GIP(1-14)(EKEK)(19-30)NH2]	98.7 ± 1.1	80.6 ± 5.6	–	–	–	–
YAEGTFISDYSIAMQQDFVNWLLAQK-NH2 [GIP(1-14)(19-30)NH2]	95.4 ± 0.7	127 ± 22	–	–	–	–
YAEGTFQQDFVNWLLAQK-NH2 [GIP(1-6)(19-30)NH2]	88.2 ± 0.7	1.81 ± 0.42	–	–	–	–
YAEGTFEKEKQQDFVNWLLAQK-NH2 (range 1-6;range 19-30) [GIP(1-6)(EKEK)(19-30)NH2]	–	–	8.17	2090	86.8	–
YAEGTFISDYSIAMAAAAQQDFVNWLLAQK-NH2 (range 1-14;range 19-30) [GIP(1-14)(AAAA)(19-30)NH2]	–	–	82.1	66.3	100	0.0587
B1	–	–	1.81	2740	88.2	–
B2	–	–	127	1370	95.4	78.7
B3	–	–	13.5	4030	67.1	–
B4	–	–	2.55	4980	75.3	–
B5	–	–	7.21	2410	88.7	–
B6	–	–	84.9	4270	75.1	8390
B7	–	–	95.9	8730	62	14500
